Measured values as given in publication PMC3539133.

Molecular target: T1, dADAR dsRBD1 (UniProt Q9NII1 48-140)
T1 sequence: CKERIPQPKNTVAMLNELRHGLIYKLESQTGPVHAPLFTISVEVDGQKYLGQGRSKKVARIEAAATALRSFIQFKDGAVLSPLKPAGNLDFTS
Experiment: ITC

**Q.** Which Kd does the source give for GGUAGUAUAACAAUAUCCGUGUUGUUAUAGUACC (structured_RNA) [GluR-2 R/G upper stem-loop (GluR-2 USL) with GluR-3 tetraloop] here?
**A.** Its Kd is 400 ± 50 nM.
